Positions count from the first letter of the chain named. Numbers in names are those of the source.

B1: Her2/Hel bispecific antibody, Combination 1 in Table 3 / Table 9 / Table 10 (anti-Her2: Q39K, F126C, C220S / Q38D, Q124C, C214S; anti-Hel: Q39D / Q38K) (bispecific antibody, human IgG1, kappa, L234A L235A)
heavy 1: not shown
light 1: not shown
heavy 2: EVRLLESGGGLVQPGGSLRLSCAASGFTFSNYAMGWVRDAPGKGLEWVSAISGSGGSTYYADSVKGRFTTSRDDSKNALYLQMNSLRAEDTAVYYCARGGPGWYAADVWGQGTTVTVSSASTKGPSVFPLAPSSKSTSGGTAALGCLVKDYFPEPVTVSWNSGALTSGVHTFPAVLQSSGLYSLSSVVTVPSSSLGTQTYICNVNHKPSNTKVDKKVEPKSCDKTHTCPPCPAPEAAGGPSVFLFPPKPKDTLMISRTPEVTCVVVDVSHEDPEVKFNWYVDGVEVHNAKTKPREEQYNSTYRVVSVLTVLHQDWLNGKEYKCKVSNKALPAPIEKTISKAKGQPREPQVCTLPPSRDELTKNQVSLSCAVKGFYPSDIAVEWESNGQPENNYKTTPPVLDSDGSFFLVSKLTVDKSRWQQGNVFSCSVMHEALHNHYTQKSLSLSPGK
light 2: DIQMTQSPSSLSASVGDRVTITCRASQSISSYLNWYQKKPGKAPKLLIYAASSLQSGVPSRFSGSGSGTDFTLTISSLQPEDFATYYCQQADLPAFAFGGGTKVEIKRTVAAPSVFIFPPSDEQLKSGTASVVCLLNNFYPREAKVQWKVDNALQSGNSQESVTEQDSKDSTYSLSSTLTLSKADYEKHKVYACEVTHQGLSSPVTKSFNRGEC
B2: Her2/Hel bispecific antibody, Combination 3 in Table 3 / Table 9 / Table 10 (anti-Her2: L45K, F126C, C220S / P44D, Q124C, C214S; anti-Hel: L45D / P44K) (bispecific antibody, human IgG1, kappa, L234A L235A)
heavy 1: not shown
light 1: not shown
heavy 2: B1 heavy 2 with D39Q, L45D
light 2: B1 light 2 with K38Q, P44K
B3: Her2/Hel bispecific antibody, Combination 2 in Table 3 / Table 9 / Table 10 (anti-Her2: L45K, F126C, C220S / Y87D, Q124C, C214S; anti-Hel: L45D / Y87K) (bispecific antibody)
heavy 1: not shown
light 1: not shown
heavy 2: B1 heavy 2 with D39Q, L45D
light 2: B1 light 2 with K38Q, Y87K
B4: Her2/Hel bispecific antibody, Combination 5 in Table 3 / Table 9 / Table 10 (anti-Her2: Y91K, F126C, C220S / P44D, Q124C, C214S; anti-Hel: Y91D / P44K) (bispecific antibody, human IgG1, kappa, L234A L235A)
heavy 1: not shown
light 1: not shown
heavy 2: B1 heavy 2 with D39Q, Y95D
light 2: B1 light 2 with K38Q, P44K
B5: Her2/Hel bispecific antibody, Combination 4 in Table 3 / Table 9 / Table 10 (anti-Her2: Y91K, F126C, C220S / A43D, Q124C, C214S; anti-Hel: Y91D / A43K) (bispecific antibody, human IgG1, kappa, L234A L235A)
heavy 1: not shown
light 1: not shown
heavy 2: B1 heavy 2 with D39Q, Y95D
light 2: B1 light 2 with K38Q, A43K

The experiment concerns the target T1, Human Her2 (Human, UniProt P04626 23-652).
T1 construct: also called antigen Her2
Briefly: BLI (ForteBio), antibody loaded on ProA sensors, antigen fusion protein in solution, 30 degrees. On the procedure: Biolayer Interferometry (BLI) technology was used to test the equilibration dissociation constant (KD) of bispecific antibody binding to the respective antigens in the present disclosure. The BLI method affinity test was performed using an existing method (Estep, P et al., High throughput solution Based measurement of antibody-antigen affinity and epitope binning. MAbs, 2013.5 (2): Pages 270-8).
Half an hour before the start of the experiment, a suitable number of ProA (ForteBio, 18-5010) sensors based on the sample size were soaked in SD buffer (PBS 1×, BSA 0.1%, Tween-20 0.05%). 100 μL of SD buffer and antigen fusion protein were taken and added to a 96-well black polystyrene half-area microplate (Greiner, 675076), respectively. The sensor position was selected based on the sample position and layout. The instrument setting parameters are as follows: Run steps: Baseline, Loading ˜1 nm, Baseline, Association and Dissociation; the run time of each step depended on the sample binding and dissociation rate, and the rotational speed was 400 rpm and temperature was 30 degrees. ForteBio analysis software was used to analysis the KD value.
On the technique in general: BLI is a label-free optical method that tracks binding on a fibre tip over time.
As to B1, the Kd turned out to be 0.805 nM, the off-rate constant (koff) was found to be 0.0002 s⁻¹ and the kon is 249000 M⁻¹ s⁻¹.

In turn, B2 had a Kd of 0.758 nM, an off-rate (koff) of 0.0002 s⁻¹ and a kon of 264000 M⁻¹ s⁻¹.

In turn, B3 displayed a Kd of 0.748 nM, a koff of 0.0002 s⁻¹ and a kon of 268000 M⁻¹ s⁻¹.

For B4, the Kd came to 0.72 nM, the koff was determined as 0.0002 s⁻¹ and the kon was determined as 278000 M⁻¹ s⁻¹.

As to B5, the Kd was 0.764 nM, the koff came to 0.0002 s⁻¹ and the kon came out at 262000 M⁻¹ s⁻¹.

The term Kd denotes a measure of binding affinity in units of concentration. Lower therefore signals a tighter complex. In general, koff refers to the first-order rate constant of dissociation. For orientation: kon means a measure of how fast the partners come together. A lower kon goes with slow association.

The record behind these values is US20260062490A1 (Innovent, published 2026).
